Measured values as given in the RNAGym collection of RNA variant scans (doi:10.7554/elife.80360).

B1: HDV Ribozyme (parent)
chain: GGCCGGCAUGGUCCCAGCCUCCUCGCUGGCGCCGGCUGGGCAACAUUCCGAGGGGACCGUCCCCUCGGUAAUGGCGAAUGGGACCCA

Variants of: B1
Assay: self-cleavage, relative activity (ratio to wild type); higher = more cleavage; co-transcriptional

Row | Variant | self-cleavage
1 | GGCCGGCAUGGUCCCAGCCUCCUCGCUGGCGCCGGCUGGGCAACAUUCCGAGGGGACCGUCCCCUCGGUUAUGGCGAAUGGGAACCA [A70U C84A] | 0.969
2 | GGCCGGCAUGGUCCCAGCCUCCUCGCUGGCGCCGGCUGGGCAACAUUCCGAGGGGACCGUCCCCUCGGUACUGGCGAAUGGCACCCA [A71C G82C] | 0.268
3 | GGCCGGCAUGGUCCCAGCCUCCUCGCUGGCGCCGGCUGGGCAACAUUCCGAGGGGACCGUCCCCUCGGUACUGGCGAAUGUGACCCA [A71C G81U] | 0.17
4 | GGCCGGCAUGGUCCCAGCCUCCUCGCUGGCGCCGGCUGGGCAACAUUCCGAGGGGACCGUCCCCUCGGUUAUGGCGACUGGGACCCA [A70U A78C] | 0.0941
5 | GGCCGGCAUGGUCCCAGCCUCCUCGCUGGCGCCGGCUGGGCAACAUUCCGAGGGGACCGUCCCCUCGGUACUGGCGUAUGGGACCCA [A71C A77U] | 0.322
6 | GGCCGGCAUGGUCCCAGCCUCCUCGCUGGCGCCGGCUGGGCAACAUUCCGAGGGGACCGUCCCCUCGGUACUGGCGGAUGGGACCCA [A71C A77G] | 0.569
7 | GGCCGGCAUGGUCCCAGCCUCCUCGCUGGCGCCGGCUGGGCAACAUUCCGAGGGGACCGUCCCCUCGGUACUGGCGCAUGGGACCCA [A71C A77C] | 0.0978
8 | GGCCGGCAUGGUCCCAGCCUCCUCGCUGGCGCCGGCUGGGCAACAUUCCGAGGGGACCGUCCCCUCGGGAAUGGCGAAUGAGACCCA [U69G G81A] | 0.469
9 | GGCCGGCAUGGUCCCAGCCUCCUCGCUGGCGCCGGCUGGGCAACAUUCCGAGGGGACCGUCCCCUCGGUACUGGCGAAUGGGAGCCA [A71C C84G] | 0.415
10 | GGCCGGCAUGGUCCCAGCCUCCUCGCUGGCGCCGGCUGGGCAACAUUCCGAGGGGACCGUCCCCUCGGUCAUGGCGUAUGGGACCCA [A70C A77U] | 0.237
11 | GGCCGGCAUGGUCCCAGCCUCCUCGCUGGCGCCGGCUGGGCAACAUUCCGAGGGGACCGUCCCCUCGGUACUGGCGAAUGGGACCGA [A71C C86G] | 0.63
12 | GGCCGGCAUGGUCCCAGCCUCCUCGCUGGCGCCGGCUGGGCAACAUUCCGAGGGGACCGUCCCCUCGGUGAUGGUGAAUGGGACCCA [A70G C75U] | 0.136
13 | GGCCGGCAUGGUCCCAGCCUCCUCGCUGGCGCCGGCUGGGCAACAUUCCGAGGGGACCGUCCCCUCGGUGAUGGGGAAUGGGACCCA [A70G C75G] | 0.219
14 | GGCCGGCAUGGUCCCAGCCUCCUCGCUGGCGCCGGCUGGGCAACAUUCCGAGGGGACCGUCCCCUCGGUGAUGGCGAAUGCGACCCA [A70G G81C] | 0.277
15 | GGCCGGCAUGGUCCCAGCCUCCUCGCUGGCGCCGGCUGGGCAACAUUCCGAGGGGACCGUCCCCUCGGUUCUGGCGAAUGGGACCCA [A70U A71C] | 0.802
16 | GGCCGGCAUGGUCCCAGCCUCCUCGCUGGCGCCGGCUGGGCAACAUUCCGAGGGGACCGUCCCCUCGGUAGUGGCAAAUGGGACCCA [A71G G76A] | 1
17 | GGCCGGCAUGGUCCCAGCCUCCUCGCUGGCGCCGGCUGGGCAACAUUCCGAGGGGACCGUCCCCUCGGUAGUGGCCAAUGGGACCCA [A71G G76C] | 0.73
18 | GGCCGGCAUGGUCCCAGCCUCCUCGCUGGCGCCGGCUGGGCAACAUUCCGAGGGGACCGUCCCCUCGGUGAUGGCGAAUGGGCCCCA [A70G A83C] | 0.344
19 | GGCCGGCAUGGUCCCAGCCUCCUCGCUGGCGCCGGCUGGGCAACAUUCCGAGGGGACCGUCCCCUCGGUCAUGGCGAAUUGGACCCA [A70C G80U] | 0.217
20 | GGCCGGCAUGGUCCCAGCCUCCUCGCUGGCGCCGGCUGGGCAACAUUCCGAGGGGACCGUCCCCUCGGUGAUCGCGAAUGGGACCCA [A70G G73C] | 0.356
21 | GGCCGGCAUGGUCCCAGCCUCCUCGCUGGCGCCGGCUGGGCAACAUUCCGAGGGGACCGUCCCCUCGGUGUUGGCGAAUGGGACCCA [A70G A71U] | 0.852
22 | GGCCGGCAUGGUCCCAGCCUCCUCGCUGGCGCCGGCUGGGCAACAUUCCGAGGGGACCGUCCCCUCGGUACUGGCGAAUGGGACCCU [A71C A87U] | 0.844

Row | Variant | self-cleavage
23 | GGCCGGCAUGGUCCCAGCCUCCUCGCUGGCGCCGGCUGGGCAACAUUCCGAGGGGACCGUCCCCUCGGUACUGGCGAAUGGGACCCC [A71C A87C] | 0.755
24 | GGCCGGCAUGGUCCCAGCCUCCUCGCUGGCGCCGGCUGGGCAACAUUCCGAGGGGACCGUCCCCUCGGUAGUCGCGAAUGGGACCCA [A71G G73C] | 0.6
25 | GGCCGGCAUGGUCCCAGCCUCCUCGCUGGCGCCGGCUGGGCAACAUUCCGAGGGGACCGUCCCCUCGGUCAUGGCGAAUGCGACCCA [A70C G81C] | 0.201
26 | GGCCGGCAUGGUCCCAGCCUCCUCGCUGGCGCCGGCUGGGCAACAUUCCGAGGGGACCGUCCCCUCGGUCAUGGCGAAUGGGAGCCA [A70C C84G] | 0.323
27 | GGCCGGCAUGGUCCCAGCCUCCUCGCUGGCGCCGGCUGGGCAACAUUCCGAGGGGACCGUCCCCUCGGUCAUGGCGAAUGGGUCCCA [A70C A83U] | 0.475
28 | GGCCGGCAUGGUCCCAGCCUCCUCGCUGGCGCCGGCUGGGCAACAUUCCGAGGGGACCGUCCCCUCGGUGAUGGCGAAUCGGACCCA [A70G G80C] | 0.104
29 | GGCCGGCAUGGUCCCAGCCUCCUCGCUGGCGCCGGCUGGGCAACAUUCCGAGGGGACCGUCCCCUCGGUCAUGGCGAAUGGGACACA [A70C C85A] | 0.883
30 | GGCCGGCAUGGUCCCAGCCUCCUCGCUGGCGCCGGCUGGGCAACAUUCCGAGGGGACCGUCCCCUCGGUCGUGGCGAAUGGGACCCA [A70C A71G] | 0.831
31 | GGCCGGCAUGGUCCCAGCCUCCUCGCUGGCGCCGGCUGGGCAACAUUCCGAGGGGACCGUCCCCUCGGUCCUGGCGAAUGGGACCCA [A70C A71C] | 0.762
32 | GGCCGGCAUGGUCCCAGCCUCCUCGCUGGCGCCGGCUGGGCAACAUUCCGAGGGGACCGUCCCCUCGGUAGUGUCGAAUGGGACCCA [A71G G74U] | 0.658
33 | GGCCGGCAUGGUCCCAGCCUCCUCGCUGGCGCCGGCUGGGCAACAUUCCGAGGGGACCGUCCCCUCGGUAGUGCCGAAUGGGACCCA [A71G G74C] | 0.383
34 | GGCCGGCAUGGUCCCAGCCUCCUCGCUGGCGCCGGCUGGGCAACAUUCCGAGGGGACCGUCCCCUCGGUAGUGACGAAUGGGACCCA [A71G G74A] | 0.4
35 | GGCCGGCAUGGUCCCAGCCUCCUCGCUGGCGCCGGCUGGGCAACAUUCCGAGGGGACCGUCCCCUCGGUGAUGGCGAAUGGGACCUA [A70G C86U] | 1.23
36 | GGCCGGCAUGGUCCCAGCCUCCUCGCUGGCGCCGGCUGGGCAACAUUCCGAGGGGACCGUCCCCUCGGUGAUGCCGAAUGGGACCCA [A70G G74C] | 0.107
37 | GGCCGGCAUGGUCCCAGCCUCCUCGCUGGCGCCGGCUGGGCAACAUUCCGAGGGGACCGUCCCCUCGGUGAGGGCGAAUGGGACCCA [A70G U72G] | 0.582
38 | GGCCGGCAUGGUCCCAGCCUCCUCGCUGGCGCCGGCUGGGCAACAUUCCGAGGGGACCGUCCCCUCGGUUAUGGCGAAUGGGACACA [A70U C85A] | 1.06
39 | GGCCGGCAUGGUCCCAGCCUCCUCGCUGGCGCCGGCUGGGCAACAUUCCGAGGGGACCGUCCCCUCGGUUAUGGCGAAUGGGACUCA [A70U C85U] | 0.746
40 | GGCCGGCAUGGUCCCAGCCUCCUCGCUGGCGCCGGCUGGGCAACAUUCCGAGGGGACCGUCCCCUCGGGAAUGGCGAAGGGGACCCA [U69G U79G] | 0.895
41 | GGCCGGCAUGGUCCCAGCCUCCUCGCUGGCGCCGGCUGGGCAACAUUCCGAGGGGACCGUCCCCUCGGGAAUGGCGAACGGGACCCA [U69G U79C] | 0.326
42 | GGCCGGCAUGGUCCCAGCCUCCUCGCUGGCGCCGGCUGGGCAACAUUCCGAGGGGACCGUCCCCUCGGUUACGGCGAAUGGGACCCA [A70U U72C] | 0.653
43 | GGCCGGCAUGGUCCCAGCCUCCUCGCUGGCGCCGGCUGGGCAACAUUCCGAGGGGACCGUCCCCUCGGUGAUGGCGAAUGGGAUCCA [A70G C84U] | 0.743
44 | GGCCGGCAUGGUCCCAGCCUCCUCGCUGGCGCCGGCUGGGCAACAUUCCGAGGGGACCGUCCCCUCGGUACUGUCGAAUGGGACCCA [A71C G74U] | 0.789

Row | Variant | self-cleavage
45 | GGCCGGCAUGGUCCCAGCCUCCUCGCUGGCGCCGGCUGGGCAACAUUCCGAGGGGACCGUCCCCUCGGUAGUGGCGAAUGGGUCCCA [A71G A83U] | 0.323
46 | GGCCGGCAUGGUCCCAGCCUCCUCGCUGGCGCCGGCUGGGCAACAUUCCGAGGGGACCGUCCCCUCGGUAGUGGUGAAUGGGACCCA [A71G C75U] | 0.151
47 | GGCCGGCAUGGUCCCAGCCUCCUCGCUGGCGCCGGCUGGGCAACAUUCCGAGGGGACCGUCCCCUCGGUGAUGGCGAAUGGGACCCG [A70G A87G] | 1.01
48 | GGCCGGCAUGGUCCCAGCCUCCUCGCUGGCGCCGGCUGGGCAACAUUCCGAGGGGACCGUCCCCUCGGUCAUGGCGAAUGGUACCCA [A70C G82U] | 0.166
49 | GGCCGGCAUGGUCCCAGCCUCCUCGCUGGCGCCGGCUGGGCAACAUUCCGAGGGGACCGUCCCCUCGGUACUGGCGAAUUGGACCCA [A71C G80U] | 0.182
50 | GGCCGGCAUGGUCCCAGCCUCCUCGCUGGCGCCGGCUGGGCAACAUUCCGAGGGGACCGUCCCCUCGGUACUGGCGAAUAGGACCCA [A71C G80A] | 0.266
51 | GGCCGGCAUGGUCCCAGCCUCCUCGCUGGCGCCGGCUGGGCAACAUUCCGAGGGGACCGUCCCCUCGGUACUGGCAAAUGGGACCCA [A71C G76A] | 0.935
52 | GGCCGGCAUGGUCCCAGCCUCCUCGCUGGCGCCGGCUGGGCAACAUUCCGAGGGGACCGUCCCCUCGGUACUGGCCAAUGGGACCCA [A71C G76C] | 0.848
53 | GGCCGGCAUGGUCCCAGCCUCCUCGCUGGCGCCGGCUGGGCAACAUUCCGAGGGGACCGUCCCCUCGGUGAUGGCGAAUGGGACACA [A70G C85A] | 1.07
54 | GGCCGGCAUGGUCCCAGCCUCCUCGCUGGCGCCGGCUGGGCAACAUUCCGAGGGGACCGUCCCCUCGGGAACGGCGAAUGGGACCCA [U69G U72C] | 0.485
55 | GGCCGGCAUGGUCCCAGCCUCCUCGCUGGCGCCGGCUGGGCAACAUUCCGAGGGGACCGUCCCCUCGGUAGUGGCGAAUCGGACCCA [A71G G80C] | 0.271
56 | GGCCGGCAUGGUCCCAGCCUCCUCGCUGGCGCCGGCUGGGCAACAUUCCGAGGGGACCGUCCCCUCGGUACUGGCGACUGGGACCCA [A71C A78C] | 0.219
57 | GGCCGGCAUGGUCCCAGCCUCCUCGCUGGCGCCGGCUGGGCAACAUUCCGAGGGGACCGUCCCCUCGGUACUGGCGAGUGGGACCCA [A71C A78G] | 0.615
58 | GGCCGGCAUGGUCCCAGCCUCCUCGCUGGCGCCGGCUGGGCAACAUUCCGAGGGGACCGUCCCCUCGGUAGUGGCGAAUGGGACCCC [A71G A87C] | 1.03
59 | GGCCGGCAUGGUCCCAGCCUCCUCGCUGGCGCCGGCUGGGCAACAUUCCGAGGGGACCGUCCCCUCGGUUAUGUCGAAUGGGACCCA [A70U G74U] | 0.499
60 | GGCCGGCAUGGUCCCAGCCUCCUCGCUGGCGCCGGCUGGGCAACAUUCCGAGGGGACCGUCCCCUCGGUUAUGACGAAUGGGACCCA [A70U G74A] | 0.358
61 | GGCCGGCAUGGUCCCAGCCUCCUCGCUGGCGCCGGCUGGGCAACAUUCCGAGGGGACCGUCCCCUCGGUGAUGGCGAACGGGACCCA [A70G U79C] | 0.365
62 | GGCCGGCAUGGUCCCAGCCUCCUCGCUGGCGCCGGCUGGGCAACAUUCCGAGGGGACCGUCCCCUCGGUGAUGGCGAAAGGGACCCA [A70G U79A] | 0.77
63 | GGCCGGCAUGGUCCCAGCCUCCUCGCUGGCGCCGGCUGGGCAACAUUCCGAGGGGACCGUCCCCUCGGUGAUGGCGAAGGGGACCCA [A70G U79G] | 0.582
64 | GGCCGGCAUGGUCCCAGCCUCCUCGCUGGCGCCGGCUGGGCAACAUUCCGAGGGGACCGUCCCCUCGGUACUGGCGAAUGGGACUCA [A71C C85U] | 0.875
